± gives the uncertainty stated by the source.
B1: COUP transcription factor 1, residues 83 to 159; numbered along this chain, P10589 (parent)
chain: HIECVVCGDKSSGKHYGQFTCEGCKSFFKRSVRRNLTYTCRANRNCPIDQHHRNQCQYCRLKKCLKVGMRREAVQRG

Variants of: B1
Experiment: abundance fitness (aPCA) (normalised: wild type 0, dead -1); higher = more abundant; growth selection in yeast, the domain comes from the species named
Settings: Homo sapiens

| Variant | abundance fitness |
| --- | --- |
| HIECVVCGDKSSGKLYGQFTCEGCKSFFKRSVRRNLTYTCRANRNCPIDQHHRNQCQYCRLKKCLKVGMRREAVQRG [H15L] | 0.001 ± 0.14 |
| HIECVVCGDKSSGKRYGQFTCEGCKSFFKRSVRRNLTYTCRANRNCPIDQHHRNQCQYCRLKKCLKVGMRREAVQRG [H15R] | -0.364 ± 0.14 |
| HIECVVCGDKSSGKKYGQFTCEGCKSFFKRSVRRNLTYTCRANRNCPIDQHHRNQCQYCRLKKCLKVGMRREAVQRG [H15K] | -0.857 ± 0.5 |
| HIECVVCGDKSSGKQYGQFTCEGCKSFFKRSVRRNLTYTCRANRNCPIDQHHRNQCQYCRLKKCLKVGMRREAVQRG [H15Q] | -0.052 ± 0.17 |
| HIECVVCGDKSSRKHYGQFTCEGCKSFFKRSVRRNLTYTCRANRNCPIDQHHRNQCQYCRLKKCLKVGMRREAVQRG [G13R] | -0.243 ± 0.049 |
| HIECVVCGDKSSEKHYGQFTCEGCKSFFKRSVRRNLTYTCRANRNCPIDQHHRNQCQYCRLKKCLKVGMRREAVQRG [G13E] | 0.089 ± 0.065 |
| HIECVVCGDKSSIKHYGQFTCEGCKSFFKRSVRRNLTYTCRANRNCPIDQHHRNQCQYCRLKKCLKVGMRREAVQRG [G13I] | -0.199 ± 0.099 |
| HIECVVCGDKSSVKHYGQFTCEGCKSFFKRSVRRNLTYTCRANRNCPIDQHHRNQCQYCRLKKCLKVGMRREAVQRG [G13V] | -0.288 ± 0.059 |
| HIECVVCGDKSSTKHYGQFTCEGCKSFFKRSVRRNLTYTCRANRNCPIDQHHRNQCQYCRLKKCLKVGMRREAVQRG [G13T] | -0.115 ± 0.055 |
| HIECVVCGDKSSQKHYGQFTCEGCKSFFKRSVRRNLTYTCRANRNCPIDQHHRNQCQYCRLKKCLKVGMRREAVQRG [G13Q] | 0.074 ± 0.059 |
| HIECVVCGDKSSCKHYGQFTCEGCKSFFKRSVRRNLTYTCRANRNCPIDQHHRNQCQYCRLKKCLKVGMRREAVQRG [G13C] | -0.95 ± 0.29 |
| HIECVVCGDKSSDKHYGQFTCEGCKSFFKRSVRRNLTYTCRANRNCPIDQHHRNQCQYCRLKKCLKVGMRREAVQRG [G13D] | 0.053 ± 0.068 |
| HIECVVCGDKSSLKHYGQFTCEGCKSFFKRSVRRNLTYTCRANRNCPIDQHHRNQCQYCRLKKCLKVGMRREAVQRG [G13L] | -0.358 ± 0.054 |
| HIECVVCGDKSSMKHYGQFTCEGCKSFFKRSVRRNLTYTCRANRNCPIDQHHRNQCQYCRLKKCLKVGMRREAVQRG [G13M] | -0.049 ± 0.068 |
| HIECVVCGDKSSAKHYGQFTCEGCKSFFKRSVRRNLTYTCRANRNCPIDQHHRNQCQYCRLKKCLKVGMRREAVQRG [G13A] | 0.171 ± 0.04 |
| HIECVVCGDKSSFKHYGQFTCEGCKSFFKRSVRRNLTYTCRANRNCPIDQHHRNQCQYCRLKKCLKVGMRREAVQRG [G13F] | -0.206 ± 0.075 |
| HIECVVCGDKSSWKHYGQFTCEGCKSFFKRSVRRNLTYTCRANRNCPIDQHHRNQCQYCRLKKCLKVGMRREAVQRG [G13W] | -1.04 ± 0.19 |
| HIECVVCGDKSSNKHYGQFTCEGCKSFFKRSVRRNLTYTCRANRNCPIDQHHRNQCQYCRLKKCLKVGMRREAVQRG [G13N] | -0.068 ± 0.11 |

| Variant | abundance fitness |
| --- | --- |
| HIECVVCGDKSSPKHYGQFTCEGCKSFFKRSVRRNLTYTCRANRNCPIDQHHRNQCQYCRLKKCLKVGMRREAVQRG [G13P] | -0.175 ± 0.067 |
| HIECVVCGDKSSHKHYGQFTCEGCKSFFKRSVRRNLTYTCRANRNCPIDQHHRNQCQYCRLKKCLKVGMRREAVQRG [G13H] | -0.306 ± 0.082 |
| HIECVVCGDKSSSKHYGQFTCEGCKSFFKRSVRRNLTYTCRANRNCPIDQHHRNQCQYCRLKKCLKVGMRREAVQRG [G13S] | -0.193 ± 0.049 |
| HIECVVCGDKSSGSHYGQFTCEGCKSFFKRSVRRNLTYTCRANRNCPIDQHHRNQCQYCRLKKCLKVGMRREAVQRG [K14S] | 0.174 ± 0.14 |
| HIECVVCGDKSSGMHYGQFTCEGCKSFFKRSVRRNLTYTCRANRNCPIDQHHRNQCQYCRLKKCLKVGMRREAVQRG [K14M] | 0.016 ± 0.13 |
| HIECVVCGDKSSGGHYGQFTCEGCKSFFKRSVRRNLTYTCRANRNCPIDQHHRNQCQYCRLKKCLKVGMRREAVQRG [K14G] | -0.315 ± 0.14 |
| HIECVVCGDKSSGVHYGQFTCEGCKSFFKRSVRRNLTYTCRANRNCPIDQHHRNQCQYCRLKKCLKVGMRREAVQRG [K14V] | 0.115 ± 0.12 |
| HIECVVCGDKSSGEHYGQFTCEGCKSFFKRSVRRNLTYTCRANRNCPIDQHHRNQCQYCRLKKCLKVGMRREAVQRG [K14E] | 0.417 ± 0.11 |
| HIECVVCGDKSSGNHYGQFTCEGCKSFFKRSVRRNLTYTCRANRNCPIDQHHRNQCQYCRLKKCLKVGMRREAVQRG [K14N] | 0.019 ± 0.39 |
| HIECVVCGDKSSGYHYGQFTCEGCKSFFKRSVRRNLTYTCRANRNCPIDQHHRNQCQYCRLKKCLKVGMRREAVQRG [K14Y] | -0.068 ± 0.5 |
| HIECVVCGDKSSGQHYGQFTCEGCKSFFKRSVRRNLTYTCRANRNCPIDQHHRNQCQYCRLKKCLKVGMRREAVQRG [K14Q] | 0.274 ± 0.2 |
| HIECVVCGDKSSGPHYGQFTCEGCKSFFKRSVRRNLTYTCRANRNCPIDQHHRNQCQYCRLKKCLKVGMRREAVQRG [K14P] | 0.201 ± 0.27 |
| HIECVVCGDKSSGWHYGQFTCEGCKSFFKRSVRRNLTYTCRANRNCPIDQHHRNQCQYCRLKKCLKVGMRREAVQRG [K14W] | -0.423 ± 0.25 |
| HIECVVCGDKSSGDHYGQFTCEGCKSFFKRSVRRNLTYTCRANRNCPIDQHHRNQCQYCRLKKCLKVGMRREAVQRG [K14D] | 0.228 ± 0.31 |
| HIECVVCGDKSSGLHYGQFTCEGCKSFFKRSVRRNLTYTCRANRNCPIDQHHRNQCQYCRLKKCLKVGMRREAVQRG [K14L] | 0.111 ± 0.08 |
| HIECVVCGDKSSGTHYGQFTCEGCKSFFKRSVRRNLTYTCRANRNCPIDQHHRNQCQYCRLKKCLKVGMRREAVQRG [K14T] | -0.113 ± 0.31 |
| HIECVVCGDKSSGHHYGQFTCEGCKSFFKRSVRRNLTYTCRANRNCPIDQHHRNQCQYCRLKKCLKVGMRREAVQRG [K14H] | 0.524 ± 0.29 |
| HIECVVCGDKSSGRHYGQFTCEGCKSFFKRSVRRNLTYTCRANRNCPIDQHHRNQCQYCRLKKCLKVGMRREAVQRG [K14R] | -0.217 ± 0.12 |
